No end group written: not given here.
T1: activated IL-18 protein (IL-18^37-193) (human, UniProt Q14116 37-193)
T1 sequence (looked up): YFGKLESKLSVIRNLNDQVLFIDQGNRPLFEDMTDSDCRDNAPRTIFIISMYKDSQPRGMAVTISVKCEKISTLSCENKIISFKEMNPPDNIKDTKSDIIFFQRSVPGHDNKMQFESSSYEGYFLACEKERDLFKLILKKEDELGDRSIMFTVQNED

T2: peptide K44A (alanine variant of …) (human, not fully specified)
T2 construct: Position is counted on IL-18
T2 peptide: YFGKLESAC

T3: peptide Y37A (alanine variant of …) (human, not fully specified)
T3 construct: Position is counted on IL-18
T3 peptide: AFGKLESKC

T4: peptide F38A (alanine variant of …) (human, not fully specified)
T4 construct: Position is counted on IL-18
T4 peptide: YAGKLESKC

T5: peptide S43A (alanine variant of …) (human, not fully specified)
T5 construct: Position is counted on IL-18
T5 peptide: YFGKLEAKC

T6: neoepitope peptide (positions 37 to 44, C-terminal Cys) with positions 40 to 44 substituted with alanine (human, not fully specified)
T6 peptide: YFGAAAAAC

T7: neoepitope peptide (positions 37 to 44, C-terminal Cys) with positions 41 to 44 substituted with alanine (human, not fully specified)
T7 construct: Member of the successive alanine series, derived from the description of the series; Positions are counted on IL-18; also called peptide having the presence of lysine at position 40
T7 peptide: YFGKAAAAC

T8: neoepitope peptide (positions 37 to 44, C-terminal Cys) with positions 42 to 44 substituted with alanine (human, not fully specified)
T8 construct: Member of the successive alanine series, derived from the description of the series; Positions are counted on IL-18; also called peptide having the presence of lysine at position 40
T8 peptide: YFGKLAAAC

T9: neoepitope peptide (positions 37 to 44, C-terminal Cys) with positions 43 to 44 substituted with alanine (human, not fully specified)
T9 construct: Member of the successive alanine series, derived from the description of the series; Positions are counted on IL-18; also called peptide having the presence of lysine at position 40
T9 peptide: YFGKLEAAC

T10: peptide L41A (alanine variant of …) (human, not fully specified)
T10 construct: Position is counted on IL-18
T10 peptide: YFGKAESKC

T11: peptide G39A (alanine variant of …) (human, not fully specified)
T11 construct: Position is counted on IL-18
T11 peptide: YFAKLESKC

T12: neoepitope peptide IL-18^37-44 with C-terminal cysteine (YFGKLESKC) (human, not fully specified)
T12 construct: also called IL-18^37-44 peptide; wild-type peptide
T12 peptide: YFGKLESKC

T13: peptide E42A (alanine variant of …) (human, not fully specified)
T13 construct: Position is counted on IL-18
T13 peptide: YFGKLASKC

B1: monoclonal antibody 8-4.1 (antibody, V domains shown)
VH: LSITCTVSGFSLTSYGVHWVRQPPGKGLEWLGVIWAGGSTNYNSALMSRLSISKDNSKSQVFLKMNSLQTDDTAMYYCARESSYDAMDYWGQGTSVTVSS
VL: DIVITQSPKSMSMSVGERVTLTCKASENVVTYVSWYQQKPEQSPKLMIYGASNRYTGVPDRFTGSGSATDFTLTISSVQAEDLADYHCGQGYSYPYTFGGGTKLEIK
B2: monoclonal antibody 9-10.2 (antibody, V domains shown)
VH: SLTCSFSGFSLSSSGMGVGWIRQPSGKGLEWLAHIWWDDDKNYNPGLKSRLTISKDTSKNQVFLKIANVDTADAATYYCTRTRTYSNFGGGMAYWGQGTSVTVSS
VL: LGDQASISCRSSQSIAHSNGYTYLEWYLQTPGQSPKLLIYKVSNRFSGVPDRFSGSGSGTDFTLKISRVEAEDLGVYYCVQGSHVPLTFGAGTKLELK

Tests used:
[1] = biological target: T1, activated IL-18 protein (IL-18^37-193); assay: cell-based or functional assay
[2] = biological target: T2, peptide K44A (alanine variant of …); assay: ELISA on BSA-crosslinked peptide, alanine scanning; row YFGKLESA
[3] = biological target: T3, peptide Y37A (alanine variant of …); assay: ELISA on BSA-crosslinked peptide, alanine scanning; row AFGKLESK
[4] = biological target: T4, peptide F38A (alanine variant of …); assay: ELISA on BSA-crosslinked peptide, alanine scanning; row YAGKLESK
[5] = biological target: T2, peptide K44A (alanine variant of …); assay: ELISA on BSA-crosslinked peptide (alanine scanning)
[6] = biological target: T4, peptide F38A (alanine variant of …); assay: as above
[7] = biological target: T5, peptide S43A (alanine variant of …); assay: as above
[8] = biological target: T6, neoepitope peptide (positions 37 to 44, …); assay: ELISA on BSA-crosslinked peptide, neoepitope fine analysis; row YFGAAAAA
[9] = biological target: T7, neoepitope peptide (positions 37 to 44, …); assay: ELISA on BSA-crosslinked peptide (neoepitope fine analysis)
[10] = biological target: T8, neoepitope peptide (positions 37 to 44, …); assay: as above
[11] = biological target: T9, neoepitope peptide (positions 37 to 44, …); assay: as above
[12] = biological target: T5, peptide S43A (alanine variant of …); assay: ELISA on BSA-crosslinked peptide, alanine scanning; row YFGKLEAK
[13] = biological target: T10, peptide L41A (alanine variant of …); assay: ELISA on BSA-crosslinked peptide, alanine scanning; row YFGKAESK
[14] = biological target: T11, peptide G39A (alanine variant of …); assay: ELISA on BSA-crosslinked peptide, alanine scanning; row [..]
[15] = biological target: T2, peptide K44A (alanine variant of …); assay: ELISA on BSA-crosslinked peptide, neoepitope fine analysis; row YFGKLESA
[16] = biological target: T7, neoepitope peptide (positions 37 to 44, …); assay: ELISA on BSA-crosslinked peptide, neoepitope fine analysis; row YFGKAAAA
[17] = biological target: T9, neoepitope peptide (positions 37 to 44, …); assay: ELISA on BSA-crosslinked peptide, neoepitope fine analysis; row YFGKLEAA
[18] = biological target: T12, neoepitope peptide IL-18^37-44 with …; assay: ELISA on BSA-crosslinked peptide, neoepitope fine analysis; row YFGKLESK (reference set as 100)
[19] = biological target: T13, peptide E42A (alanine variant of …); assay: ELISA on BSA-crosslinked peptide, alanine scanning; row YFGKLASK
[20] = biological target: T12, neoepitope peptide IL-18^37-44 with …; assay: ELISA on BSA-crosslinked peptide, alanine scanning; row YFGKLESK (reference set as 100)
[21] = biological target: T8, neoepitope peptide (positions 37 to 44, …); assay: ELISA on BSA-crosslinked peptide, neoepitope fine analysis; row YFGKLAAA
[22] = biological target: peptide K40A (alanine variant of …) (human, C-terminal Cys crosslinked to BSA in ELISA; thiol-coupled to sensor chip CM5 in SPR); assay: ELISA on BSA-crosslinked peptide, alanine scanning; row YFGALESK
[23] = biological target: T12, neoepitope peptide IL-18^37-44 with …; assay: SPR, Biacore X100, peptide thiol-coupled to CM5, antibody 0.4-250 nM, single-cycle, bivalent analysis

| Binder | ELISA absorbance relative to wild-type peptide (= 100) [2] | ELISA absorbance relative to wild-type peptide (= 100) [3] | ELISA absorbance relative to wild-type peptide (= 100) [4] | percent binding relative to the wild-type peptide [5] [%] | percent binding relative to the wild-type peptide [6] [%] | percent binding relative to the wild-type peptide [7] [%] | ELISA absorbance relative to wild-type peptide (= 100) [8] | reactivity relative to the wild-type peptide [9] | reactivity relative to the wild-type peptide [10] | reactivity relative to the wild-type peptide [11] | ELISA absorbance relative to wild-type peptide (= 100) [12] | ELISA absorbance relative to wild-type peptide (= 100) [13] | ELISA absorbance relative to wild-type peptide (= 100) [14] | ELISA absorbance relative to wild-type peptide (= 100) [15] | ELISA absorbance relative to wild-type peptide (= 100) [16] | ELISA absorbance relative to wild-type peptide (= 100) [17] | ELISA absorbance relative to wild-type peptide (= 100) [18] | ELISA absorbance relative to wild-type peptide (= 100) [19] | ELISA absorbance relative to wild-type peptide (= 100) [20] | ELISA absorbance relative to wild-type peptide (= 100) [21] | further results |
| --- | --- | --- | --- | --- | --- | --- | --- | --- | --- | --- | --- | --- | --- | --- | --- | --- | --- | --- | --- | --- | --- |
| B1 | 67 | 0.8 | 44 | ~50 | ~50 | ~50 | 6 | ~0.25 fraction of wild-type peptide | ~0.25 fraction of wild-type peptide | ~0.25 fraction of wild-type peptide | 55 | 33 | 3.2 | 27 | 27 | 56 | 100 | 34 | 100 | 23 | IC50 (read off the curve) [1]: ~0.6 µg; ELISA absorbance relative to wild-type peptide (= 100) [22]: 1.8 |
| B2 | 39 | 0.3 | 50 | ~50 | ~50 | ~50 | 5 | ~0.25 fraction of wild-type peptide | ~0.25 fraction of wild-type peptide | ~0.25 fraction of wild-type peptide | 45 | 14 | 2.5 | 44 | 26 | 27 | 100 | 20 | 100 | 13 | Kd [23]: 0.19 nM; kon [23]: 210000 M⁻¹ s⁻¹; ELISA absorbance relative to wild-type peptide (= 100) [22]: 2.6 |

Reference: patent publication US20210317200A1 (MABPROTEIN, published 2021)
